According to PMC10440729 (Journal of the American Chemical Society, 2022):

Assays:
[1] = system: STZ-induced C57BL/6J diabetic mouse model; assay: Blood glucose lowering in STZ-induced diabetic mice; assay type: in vivo; settings: 5 IU insulin/kg subcutaneous, blood glucose after 4 hours, n = 3
[2] = reported value, cited from earlier work
[3] = DOSY NMR diffusion coefficient / oligomerization state; assay type: physicochemical; settings: 4 °C, suggests a mixture of dimers and hexamers

Substance	duration of blood glucose response [1]	reported D of dimers ([2]; insulin dimers)	reported D of hexamers ([2]; insulin hexamers)	diffusion coefficient (D) [3]
2A-S-Ins: discrete 2A IEG polytriazole (all S) conjugated to N-terminus of insulin chain B by SPAAC	longer-lasting effects than Lantus			
insulin		1.22 × 10^−6 cm^2/s	0.87 × 10^−6 cm^2/s	~ 1 × 10^−6 cm^2/s
